± gives the uncertainty stated by the source.
Test: self-splicing fitness, log relative to wild type (ln ratio); higher = more splicing; Tetrahymena group I intron in knt gene, E. coli kanamycin selection, DiMSum; sequences stand for … in CUCUCU…GGAGGGAAAAGUUAUCAGGCAUGCACCUGGUAGCUAGUCUUUAAACCAAUAGAUUGCAUCGGUUUAAAAGGCAAGACCGUCAAAUUGCGGGAAAGGGGUCAACAGCCGUUCAGUACCAAGUCUCAGGGGAAACUUUGAGAUGGCCUUGCAAAGGGUAUGGUAAUAAGCUGACGGACAUGGUCCUAACCACGCAGCCAAGUCCUAAGUCAACAGAUCUUCUGUUGAUAUGGAUGCAGUUCACAGACUAAAUGUCGGUCGGGGAAGAUGUAUUCUUCUCAUAAGAUAUAGUCGGACCUCUCCUUAAUGGGAGCUAGCGGAUGAAGUGAUGCAACACUGGAGCCGCUGGGAACUAAUUUGUAUGCGAAAGUAUAUUGAUUAGUUUUGGAGUACUCGUGGUCG
Procedure, shortened: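 Pooled colonies went to amplicon sequencing on an Illumina HiSeq 2500 after six replicate transformations. The plates were LB agar with 100 μg/mL carbenicillin, 50 μM IPTG and 0.2% rhamnose, with or without 25 μg/mL kanamycin, incubated overnight at 37°C or 30°C. The E. coli BL21(DE3) library had all eight P1ex-region intron nucleotides randomised, the intron placed in the knt kanamycin-resistance gene on pET-22b(+). DiMSum fitness is the error-weighted combination of replicate fold changes, kanamycin against none, normalised to wild type.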

| Sequence | self-splicing fitness (ln) (30 °C) | self-splicing fitness (ln) (37 °C) |
| --- | --- | --- |
| AAUAAGCAAUAUUACGUCCG | -1.15 ± 0.11 | -0.82 ± 0.15 |
| AGGUAGCAAUAUUACGGUGC | -3.382 ± 0.029 | -1.98 ± 0.038 |
| CGCGAGCAAUAUUACGGGCA | -0.464 ± 0.084 | -0.0497 ± 0.11 |
| UAUGAGCAAUAUUACGCCUG | -1.44 ± 0.14 | -1.57 ± 0.26 |
| UCGGAGCAAUAUUACGAGUA | -3.11 ± 0.42 | -1.89 ± 0.31 |
| CCGGAGCAAUAUUACGCCGG | – | -3.09 ± 0.28 |
| UAGGAGCAAUAUUACGGCGU | -3.14 ± 0.24 | -1.43 ± 0.28 |
| GUGGAGCAAUAUUACGAUUA | -2.1 ± 0.48 | -1.68 ± 0.34 |
| CCGCAGCAAUAUUACGGCAC | -2.89 ± 0.21 | -2.91 ± 0.25 |
| GAUAAGCAAUAUUACGCGGA | -3.54 ± 0.22 | -0.761 ± 0.12 |
| UUGAAGCAAUAUUACGGGUA | -0.282 ± 0.065 | -0.527 ± 0.081 |
| AAUGAGCAAUAUUACGGCUG | -1.52 ± 0.096 | -1.47 ± 0.16 |
| CAGCAGCAAUAUUACGUUAC | – | -2.34 ± 0.27 |
| UUACAGCAAUAUUACGGUCA | -0.595 ± 0.075 | -0.209 ± 0.088 |
| UGCCAGCAAUAUUACGAAUG | -1.3 ± 0.18 | 0.0957 ± 0.17 |
| AUACAGCAAUAUUACGUAAA | -1.87 ± 0.091 | -1.41 ± 0.087 |
| UUUGAGCAAUAUUACGCACG | – | -1.45 ± 0.42 |
| UGGCAGCAAUAUUACGACUG | -1.01 ± 0.071 | -0.812 ± 0.1 |
| UCGAAGCAAUAUUACGGUUU | -3.83 ± 0.21 | -2.72 ± 0.29 |
| AUUAAGCAAUAUUACGUGCU | -1.58 ± 0.15 | -0.835 ± 0.14 |
| GAUAAGCAAUAUUACGCUAA | -2.41 ± 0.24 | -2.28 ± 0.32 |
| AGACAGCAAUAUUACGCCGC | – | -1.62 ± 0.38 |
| CUGGAGCAAUAUUACGACUA | -1.37 ± 0.28 | -1.38 ± 0.31 |
| CCGUAGCAAUAUUACGGACU | -4.02 ± 0.22 | -2.54 ± 0.2 |
| UAACAGCAAUAUUACGUUGC | – | -2.84 ± 0.25 |

| Sequence | self-splicing fitness (ln) (30 °C) | self-splicing fitness (ln) (37 °C) |
| --- | --- | --- |
| GCGCAGCAAUAUUACGAUGG | -1.42 ± 0.11 | 0.113 ± 0.16 |
| AUUGAGCAAUAUUACGGCGC | -0.865 ± 0.23 | -0.384 ± 0.17 |
| UUGAAGCAAUAUUACGACGU | 0.216 ± 0.046 | 0.439 ± 0.06 |
| CGCUAGCAAUAUUACGAACA | -0.88 ± 0.11 | -0.227 ± 0.14 |
| CCCCAGCAAUAUUACGUUGU | -3.93 ± 0.12 | -2.77 ± 0.13 |
| UACGAGCAAUAUUACGGGUA | -1.64 ± 0.14 | -1.43 ± 0.14 |
| ACGAAGCAAUAUUACGGCUC | -3.05 ± 0.22 | -1.62 ± 0.23 |
| GCUAAGCAAUAUUACGUGAU | -1.18 ± 0.073 | -0.96 ± 0.11 |
| UCCCAGCAAUAUUACGCCGC | -4.73 ± 0.32 | -3.05 ± 0.27 |
| GAGAAGCAAUAUUACGGACC | -0.43 ± 0.18 | 0.267 ± 0.19 |
| GCAGAGCAAUAUUACGUCGG | -2.57 ± 0.34 | -1.69 ± 0.46 |
| CAGGAGCAAUAUUACGAUUA | -3.38 ± 0.31 | -2.37 ± 0.3 |
| GAUCAGCAAUAUUACGACAA | -0.267 ± 0.081 | -0.396 ± 0.089 |
| UGCUAGCAAUAUUACGAUAG | -2.49 ± 0.1 | -0.62 ± 0.1 |
| CCCGAGCAAUAUUACGGUGA | -2.19 ± 0.1 | -1.32 ± 0.097 |
| AUACAGCAAUAUUACGUUUG | -2.93 ± 0.11 | -2.35 ± 0.14 |
| AUAUAGCAAUAUUACGCUUG | -1.42 ± 0.11 | -0.589 ± 0.13 |
| CAAAAGCAAUAUUACGCCUG | -1.07 ± 0.13 | -0.273 ± 0.13 |
| CGUAAGCAAUAUUACGUUGG | -1.93 ± 0.12 | -0.912 ± 0.13 |
| AGCUAGCAAUAUUACGGGGA | -2.22 ± 0.17 | -1.68 ± 0.14 |
| UGCCAGCAAUAUUACGGGAG | -2.75 ± 0.11 | -0.763 ± 0.1 |
| GGCAAGCAAUAUUACGAAAA | -0.934 ± 0.1 | -1.41 ± 0.15 |
| AUGCAGCAAUAUUACGUACU | 0.346 ± 0.055 | 0.441 ± 0.07 |
| CAAAAGCAAUAUUACGCGUG | -3.22 ± 0.11 | -2.11 ± 0.14 |
| UAAUAGCAAUAUUACGUGAA | -1.38 ± 0.1 | -1.22 ± 0.14 |

| Sequence | self-splicing fitness (ln) (30 °C) | self-splicing fitness (ln) (37 °C) |
| --- | --- | --- |
| GCACAGCAAUAUUACGCCUA | -0.82 ± 0.13 | -0.373 ± 0.11 |
| UAAUAGCAAUAUUACGUCCA | -0.695 ± 0.1 | -0.122 ± 0.11 |
| UGCGAGCAAUAUUACGAAAG | -2.87 ± 0.29 | -2.87 ± 0.43 |
| GACUAGCAAUAUUACGCGGC | -3.16 ± 0.38 | – |
| ACGGAGCAAUAUUACGCUUA | -2.71 ± 0.17 | -1.03 ± 0.11 |
| UCGAAGCAAUAUUACGGCCU | -2.16 ± 0.22 | -1.77 ± 0.21 |
| AGUGAGCAAUAUUACGUUUG | -3.7 ± 0.23 | -2.8 ± 0.24 |
| UUUAAGCAAUAUUACGUUGA | -2.17 ± 0.23 | -1.5 ± 0.2 |
| AACCAGCAAUAUUACGUAAA | -1.13 ± 0.076 | -0.76 ± 0.084 |
| UUCGAGCAAUAUUACGCGGG | -3.26 ± 0.43 | -2.07 ± 0.32 |
| UCGAAGCAAUAUUACGAAUA | -1.96 ± 0.2 | -1.76 ± 0.3 |
| UAUCAGCAAUAUUACGCAUA | -0.316 ± 0.11 | 0.0108 ± 0.11 |
| UUUAAGCAAUAUUACGGGGA | -1.27 ± 0.1 | -0.724 ± 0.11 |
| UCAGAGCAAUAUUACGUGGG | -3.2 ± 0.16 | -1.96 ± 0.14 |
| CCGAAGCAAUAUUACGGUAA | -1.62 ± 0.13 | -3.15 ± 0.23 |
| GUUUAGCAAUAUUACGAAUA | -1.58 ± 0.43 | -0.203 ± 0.3 |
| AAAAAGCAAUAUUACGGGGU | -3.62 ± 0.16 | -2.32 ± 0.17 |
| GCCCAGCAAUAUUACGGGGC | -2.87 ± 0.15 | -2.73 ± 0.25 |
| UUCGAGCAAUAUUACGAGGC | -2.45 ± 0.29 | -2.98 ± 0.3 |
| CUUGAGCAAUAUUACGGCGU | -3.95 ± 0.34 | -2.76 ± 0.26 |
| CCUAAGCAAUAUUACGCAUC | -2.22 ± 0.13 | -1.91 ± 0.13 |
| UGAAAGCAAUAUUACGUAUG | -1.53 ± 0.098 | -1.21 ± 0.14 |
| UCGCAGCAAUAUUACGUGUU | -2.49 ± 0.092 | -1.67 ± 0.11 |
| AACUAGCAAUAUUACGCACG | -0.871 ± 0.098 | -0.361 ± 0.12 |
| GUCAAGCAAUAUUACGCGGG | -4.2 ± 0.2 | -3.33 ± 0.24 |

| Sequence | self-splicing fitness (ln) (30 °C) | self-splicing fitness (ln) (37 °C) |
| --- | --- | --- |
| UAUUAGCAAUAUUACGUAGG | -1.57 ± 0.14 | -1.33 ± 0.23 |
| UUGAAGCAAUAUUACGUCUC | -3.24 ± 0.28 | -1.28 ± 0.23 |
| AACAAGCAAUAUUACGCGAA | -1.78 ± 0.073 | -0.546 ± 0.084 |
| AGUCAGCAAUAUUACGGUAA | -2.02 ± 0.12 | -1.19 ± 0.099 |
| AAAGAGCAAUAUUACGCCAU | -3.65 ± 0.22 | -2.55 ± 0.29 |
| AACGAGCAAUAUUACGACCA | -2.23 ± 0.18 | -1.53 ± 0.19 |
| ACGUAGCAAUAUUACGGUAG | -3.11 ± 0.15 | -2.25 ± 0.2 |
| CUUAAGCAAUAUUACGGGCA | -3.03 ± 0.23 | -2.3 ± 0.25 |
| UGCAAGCAAUAUUACGGAGU | -2.83 ± 0.14 | -3.18 ± 0.16 |
| CGCAAGCAAUAUUACGUUGG | -2.66 ± 0.096 | -1.02 ± 0.1 |
| UCCCAGCAAUAUUACGUGUG | -3.46 ± 0.094 | -2.32 ± 0.093 |
| UCUCAGCAAUAUUACGGAUC | -3.82 ± 0.32 | -1.52 ± 0.13 |
| UCACAGCAAUAUUACGGCCG | -1.24 ± 0.1 | -0.536 ± 0.15 |
| GUGUAGCAAUAUUACGGCUC | -0.377 ± 0.064 | 0.195 ± 0.077 |
| GCUAAGCAAUAUUACGCGCA | -0.989 ± 0.1 | -0.114 ± 0.12 |
| AGUAAGCAAUAUUACGUUAG | -1.71 ± 0.33 | – |
| GUGAAGCAAUAUUACGGUCU | 0.172 ± 0.098 | 0.824 ± 0.096 |
| ACCUAGCAAUAUUACGAACU | -0.308 ± 0.084 | 0.0875 ± 0.11 |
| CGGUAGCAAUAUUACGUGGC | -3.4 ± 0.17 | -3.09 ± 0.23 |
| GCCGAGCAAUAUUACGCCAA | -1.62 ± 0.43 | – |
| AGGUAGCAAUAUUACGGAGA | -3.57 ± 0.037 | -2.82 ± 0.043 |
| UACGAGCAAUAUUACGUGAG | -3.28 ± 0.16 | -3.58 ± 0.24 |
